The record followed here is paper PMC6128628, “Impaired hepatic amyloid-beta degradation in Alzheimer’s disease” (PLoS ONE, 2018).

The nature of the data set: Degradation of fluorescein-labeled Aβ spiked into human liver homogenates (ELISA). It is filed as in vitro ADME. As to conditions: fluorescein-labeled peptide from DMSO stock diluted to 0.4 μg/ml, 5 μl added, 37°C, stopped on ice with protease inhibitor cocktail. As to the method: Frozen liver (~500 mg) was ground into a powder in liquid nitrogen with a mortar and pestle then transferred to 8 ml sucrose lysis buffer (SLB: 20 mM HEPES, 1.5 mM magnesium chloride, 10 mM potassium chloride, 40 mM sucrose, 1 mM EDTA, 2% glycerol, 0.5% sodium deoxycholate, 1% Tergitol, pH 7.9) at 4°C. The tissue was then homogenized using an Omni TH tissue grinder (Kennesaw, GA) at 4°C. The homogenates were centrifuged at 15,000 x g in a Type 50.4 Ti rotor (Beckman Coulter, Brea, CA) for 20 min at 4°C and the supernatant was collected. Total protein was determined with Pierce’s Micro BCA protein assay kit (Thermo Fisher Scientific, Waltham, MA).
Lyophilized fluorescein-labeled Aβ40 and Aβ42 peptides (FAβ, rPeptide, Bogart, GA) were reconstituted in DMSO to 1 mg/ml and stored at 4°C [22]. For degradation experiments, the stock peptides were diluted to 0.4 μg/ml (1:2500) in sucrose lysis buffer (SLB), 5 μl of either FAβ40 or FAβ42 was added to the reaction mixtures and samples were incubated at 37°C for 1 h or 2 h (for ELISA and Western experiments). In addition, two 0 h incubations were included: one liver homogenate with 5 μl of FAβ as well as a negative control sample without FAβ. Reactions were terminated by placing homogenates on ice and by adding SLB with complete protease inhibitor cocktail (PIC, Roche, Mannheim, Germany). Reactions used for Western blots were stopped by 2XLDS sample buffer (Invitrogen) containing 100 mM dithiothreitol.
All 4 sample sets were analyzed in triplicate with Aβ40 and Aβ42 ELISAs (Invitrogen; catalog # KHB3481 and KHB3441 following the manufacturer’s instructions. Similar sets of samples were analyzed for FAβ by Western blot (as described below) with an anti-fluorescein antibody (Table 2) which binds to both to both free and bound fluorescein.
A general note: An ELISA detects its analyte on a solid surface through an enzyme-linked reagent.

Regarding “Aβ42: synthetic fluorescein-labeled amyloid beta 42 peptide (rPeptide), spiked into liver homogenates”, the “Aβ degraded within 2 hours, AD group” value (postmortem human liver homogenate from Alzheimer's disease subjects (n = 8) in sucrose lysis buffer pH 7.9, 2 h, Aβ42 ELISA in triplicate, p = 0.07 vs ND) came to 80%. Also, the “Aβ degraded within 2 hours, ND homogenates” value (postmortem human liver homogenate from non-demented controls (n = 8) in sucrose lysis buffer pH 7.9, 2 h, Aβ42 ELISA in triplicate, p = 0.07 vs AD) was found to be 94%.

With “Aβ40: synthetic fluorescein-labeled amyloid beta 40 peptide (rPeptide), spiked into liver homogenates”, the “Aβ degraded within an hour, AD group” value (postmortem human liver homogenate from Alzheimer's disease subjects (n = 8) in sucrose lysis buffer pH 7.9, 1 h, Aβ40 ELISA in triplicate, p<0.05 vs ND) is reported as 23%. In addition, the “Aβ degraded within an hour, ND group” value (postmortem human liver homogenate from non-demented controls (n = 8) in sucrose lysis buffer pH 7.9, 1 h, Aβ40 ELISA in triplicate, p<0.05 vs AD) was “Thirty-four”.
